The target of one experiment is HLA-B*38:01. The experiment can be described thus: IEDB peptide-MHC binding, purified MHC/competitive/radioactivity; filed as Kd, often an IC50 or EC50 that approximates it; ≥ and ≤ were set here for values at or beyond the usual limits of such assays. To be noted: source organism: Homo sapiens.
The target in the next experiment is HLA-B*15:02. In words: IEDB peptide-MHC binding, purified MHC/competitive/fluorescence; filed as Kd, often an IC50 or EC50 that approximates it; ≥ and ≤ were set here for values at or beyond the usual limits of such assays. To be noted: source organism: Giardia lamblia ATCC 50803.
The target in another experiment is HLA-A*69:01. The experiment can be described thus: IEDB peptide-MHC binding, purified MHC/direct/fluorescence; filed as Kd, often an IC50 or EC50 that approximates it; ≥ and ≤ were set here for values at or beyond the usual limits of such assays. Particulars: source organism: Marburg virus - Musoke, Kenya, 1980.
Another experiment addresses HLA-B*44:02. Described as above. To be noted: source organism: Marburg virus - Musoke, Kenya, 1980.
The target in experiment [1] is HLA-A*01:01. The description is as above. Particulars: source organism: Marburg virus - Musoke, Kenya, 1980.
In experiment [2] the target is HLA-B*18:01. The description is as above. To be noted: source organism: Marburg virus - Musoke, Kenya, 1980.
The target in experiment [3] is HLA-B*40:01. Described as above. To be noted: source organism: Marburg virus - Musoke, Kenya, 1980.
The target in experiment [4] is HLA-B*39:01. The experiment is described as above. To be noted: source organism: Orthomarburgvirus marburgense.
Experiment [5] deals with HLA-A*02:01. Described as above. To be noted: source organism: Marburg virus - Musoke, Kenya, 1980.
Experiment [6] concerns the target HLA-B*58:01. The experiment is described as above. Particulars: source organism: Marburg virus - Musoke, Kenya, 1980.
Experiment [7] deals with HLA-B*48:01. Described as above. To be noted: source organism: Marburg virus - Musoke, Kenya, 1980.
The target of another experiment is HLA-A*26:02. Described as above. To be noted: source organism: Orthomarburgvirus marburgense.
The next experiment has as its target HLA-A*26:03. The experiment is described as above. To be noted: source organism: Orthomarburgvirus marburgense.
In experiment [8] the target is HLA-B*07:02. Described as above. Particulars: source organism: Marburg virus - Musoke, Kenya, 1980.
Experiment [9] has as its target HLA-B*15:17. The description is as above. Particulars: source organism: Marburg virus - Musoke, Kenya, 1980.
In experiment [10] the target is HLA-B*27:05. The experiment is described as above. Particulars: source organism: Marburg virus - Musoke, Kenya, 1980.
For experiment [11], the target named is HLA-B*08:02. The experiment is described as above. Particulars: source organism: Orthomarburgvirus marburgense.
Experiment [12] deals with HLA-B*57:01. The experiment is described as above. Particulars: source organism: Marburg virus - Musoke, Kenya, 1980.
For experiment [13], the target named is HLA-B*08:03. The experiment is described as above. Particulars: source organism: Orthomarburgvirus marburgense.
The target in experiment [14] is HLA-B*15:09. The description is as above. To be noted: source organism: Orthomarburgvirus marburgense.
Experiment [15] concerns the target HLA-A*31:01. The experiment is described as above. Particulars: source organism: Marburg virus - Musoke, Kenya, 1980.
Experiment [16] deals with HLA-A*11:01. Described as above. Particulars: source organism: Marburg virus - Musoke, Kenya, 1980.
The next experiment has as its target HLA-A*68:02. The experiment can be described thus: IEDB peptide-MHC binding, purified MHC/competitive/fluorescence; filed as Kd, often an IC50 or EC50 that approximates it; ≥ and ≤ were set here for values at or beyond the usual limits of such assays.
Experiment [17] deals with HLA-A*01:01. The description is as above. To be noted: source organism: Pleistophora sp. LS.
In experiment [18] the target is HLA-B*18:01. Described as above. To be noted: source organism: Pleistophora sp. LS.
Experiment [19] concerns the target HLA-B*40:01. The experiment is described as above. To be noted: source organism: Pleistophora sp. LS.
Experiment [20] concerns the target HLA-B*39:01. The description is as above. To be noted: source organism: Pleistophora sp. LS.
Experiment [21] addresses HLA-A*02:01. Described as above. Particulars: source organism: Pleistophora sp. LS.
For experiment [22], the target named is HLA-B*58:01. The experiment is described as above. Particulars: source organism: Pleistophora sp. LS.
Experiment [23] has as its target HLA-B*48:01. Described as above. To be noted: source organism: Pleistophora sp. LS.
Experiment [24] concerns the target HLA-B*07:02. The experiment is described as above. Particulars: source organism: Pleistophora sp. LS.
Experiment [25] deals with HLA-B*15:17. The experiment is described as above. To be noted: source organism: Pleistophora sp. LS.
The target in experiment [26] is HLA-B*27:05. The description is as above. To be noted: source organism: Pleistophora sp. LS.
Experiment [27] has as its target HLA-B*08:02. Described as above. To be noted: source organism: Pleistophora sp. LS.
The next experiment concerns the target HLA-A*26:01. Described as above. Particulars: source organism: Pleistophora sp. LS.
In experiment [28] the target is HLA-B*57:01. The experiment is described as above. To be noted: source organism: Pleistophora sp. LS.
The target of another experiment is HLA-A*30:01. The description is as above. To be noted: source organism: Pleistophora sp. LS.
The target in experiment [29] is HLA-B*08:03. Described as above. Particulars: source organism: Pleistophora sp. LS.
The target in experiment [30] is HLA-B*15:09. Described as above. To be noted: source organism: Pleistophora sp. LS.
The next experiment has as its target HLA-B*35:01. The description is as above. Particulars: source organism: Pleistophora sp. LS.
The target in experiment [31] is HLA-A*31:01. Described as above. To be noted: source organism: Pleistophora sp. LS.
Experiment [32] deals with HLA-A*11:01. The description is as above. To be noted: source organism: Pleistophora sp. LS.
In another experiment the target is HLA-A*02:03. Described as above. Particulars: source organism: Pleistophora sp. LS.

For orientation: Kd means a measure of binding affinity in units of concentration.

For the sequence SHETVTIEL, the Kd in the experiment with HLA-B*38:01 was found to be 2480 nM.

The sequence TLAHTHAAY registered an equilibrium dissociation constant (Kd) with HLA-B*15:02 of 67.1 nM.

For SEINNLNLT, the Kd with HLA-A*69:01 is not below 20 µM; with HLA-B*44:02 it was not below 20 µM; in the experiment with HLA-A*01:01 [1] it was not below 20 µM; in the experiment with HLA-B*18:01 [2] it was 8.07 µM; with HLA-B*40:01 [3] it was 7 µM; with HLA-B*39:01 [4] it was not below 20 µM. Moreover, the Kd with HLA-A*02:01 [5], with HLA-B*58:01 [6], with HLA-B*48:01 [7], with HLA-A*26:02, with HLA-A*26:03 and with HLA-B*07:02 [8] was not below 20 µM throughout. For the same sequence, the Kd in the experiment with HLA-B*15:17 [9], with HLA-B*27:05 [10], with HLA-B*08:02 [11], with HLA-B*57:01 [12], with HLA-B*08:03 [13] and with HLA-B*15:09 [14] was not below 20 µM each time. In addition, the Kd in the experiment with HLA-A*31:01 [15], with HLA-A*11:01 [16] and in the experiment with HLA-A*68:02 (source organism: Orthomarburgvirus marburgense) was not below 20 µM throughout.

For VELQIGWTV, the Kd with HLA-A*01:01 [17] is not below 20 µM; in the experiment with HLA-B*18:01 [18], not above 1 nM; with HLA-B*40:01 [19], 40 nM; with HLA-B*39:01 [20], 949 nM; with HLA-A*02:01 [21], 239 nM; with HLA-B*58:01 [22], not below 20 µM. In addition, the dissociation constant Kd with HLA-B*48:01 [23], in the experiment with HLA-B*07:02 [24], with HLA-B*15:17 [25], with HLA-B*27:05 [26], with HLA-B*08:02 [27] and in the experiment with HLA-A*26:01 was not below 20 µM throughout. In addition, the Kd with HLA-B*57:01 [28], in the experiment with HLA-A*30:01, with HLA-B*08:03 [29], with HLA-B*15:09 [30], in the experiment with HLA-B*35:01 and in the experiment with HLA-A*68:02 (source organism: Pleistophora sp. LS) was not below 20 µM throughout. The Kd with HLA-A*31:01 [31], with HLA-A*11:01 [32] and in the experiment with HLA-A*02:03 was not below 20 µM throughout.

Source of the values: the Immune Epitope Database (IEDB).
